Protein production data for 16 sequences are collected here from a protein production outcome set (Wang et al. 2014).

This series is described as follows: label from the status in PepcDB records.
On to “MHLPHFALSSVLSLTLCAIPNLGFASSNQTEDSTQARPTWLRDIALSPDGQKIAFTYAGQIWLVPAQGGDAVALTESGVYSETPIWSPDSQSIAFTADRYGLGDVFILSIQGGESRRLTYHGAKDIPYAFSADGQQLYFSSRRLGDDKANANVKQGSFMAQLYSVPAAGGREQRVLPIAISDLAISPSHSDILYTNQPSDEQPWRKGALSDATRDIWQWSPLTGKHTQITTFRGEDRNPVWSADGSSMYYLSEQAGSFNVWQQRFDGSEPVQITDHQKLPVRFLSASLQGDLAYGFDGEIWRLKAGAKQAEKVPVSIRRSAMPDGRHNVNFNLEATEMVVAPNAAEVAIVARGDVYVVSLLSGLTQRITDTPEAERDVSFSSDGYRLIYASEREGSWNLYQSYVNDGGKSFSSSLDIIEEPVLTTEQDVIQPLYSPNLKRIVYRENRNTLKVYDIEQDKTYTLLDAHALYSYFDKDLSYQWSPDSEYIVTRDRAMSNGDIQLLKFDGSEAPINLSQSGFSEFAPQFSADGQWVYWLTDAKGLRDIDDMVVQYDVYGVALNREAKFNFNKTQEQLWLEEEIAAEKNLGPGQNPPAELTVVENKGLKQRTMRMTPTSLNIIFKHLTHDNQALIIAYQLGDSVQISEINLRSGEMTALFNRLSEDAALLAMASDDASLLIMGEHGIENLNVLTGESKFVRYEAKANFDFRAEIRLLV”, for which the protein production entry is “failed”.

“MIRSLLLASAACALAFPAAAETVAIVNARLEPVSSPAIPNGTLVIKDGKIAALGASIQVPAGARVIDAKGGVVTPGLIAPSSNLGASEISGVRETRDDGTGSALSAAFDISYGVNPASTFLGLARDGGITGSAVTPVLSGTGGGAHEHADDGVVEEMTAGAHGDGDPPLFGGQAAFIRLKAGSPDIVEARKLAVTVSLGESGARAAGGSRGANLVLLRSALEDARAFASRRAAFEQGATRDFGLSRLDLQALIPVVQGKTPLLIRVSRAADIRQALKFAAEERIKIVLEGVEEGWMVADEIAKAGVPVILDPQDDLPGSFETLGSRLDNAARLHAAGVSVAINGSRDFNNLRQERLNAGLAVAHGLPYPAALAAVTLVPARIWGQADKVGSLEVGKLADVVVWNGDPLETTSWPTAVLIGGVEQPKDGRHEQLKARYAAGDQNGYPPAYR”: the protein production result is recorded as “failed”.

For the sequence “MTKIACVIVTYNRKQLLEEALNSVLIQTESPEYVFVIDNASTDGTEKYINDKFNFDNRQWHYVRCSQNLGGSAGFAQGMRLALQTDCSWISISDDDAIFEPGYFAALRKGIKQYPEQSVFSGSVLLPDGKHDMMHREVITNSATLTVRCVTDETYKHDFSYDIFSFVGILLSRQVIEAIGLPEQDYFIRFDDFEYAVRALKFGRFMNLSAAKVLHKTTYTRSAIAPWKEYYVMRNRIALLIKHRGNNHTVRWYCRRFLLRKLLAILLFSNRRRQARSLVNAYVKGYQDGWHARLGRQLAFLPS”, the protein production result was “failed”.

For the sequence “VRHTVKIDKDTLLQDYGFHISESLPLTVVAVTAGGSAHGKLFPGDQILQMNNEPAEDLSWERAVDILREAEDSLSITVVRCTS”, the protein production entry is listed as “not failed”.

As to “MKQIRLLAQYYVDLMVKLGLVRFSLLLASVLVLLAMVVQMAVTLLLSGEVENIDVVRSIFFGLLITPWAVYFLSVVVEQLEESRQRLSKLVAKLEEMRHRDLELNVQLQENIAQLNQEIADRIKAEEARVLVMSRLKEEMSRREQAQIELEQQSALLRSFLDASPDLVYYRNEEKEFSGCNRAMELLVGKSQKQLIGLTPQDVYAPDIAEKVMETDEKVFRHNVSLTYEQWLVYPDGRKACFELRKVPFYDRMGKRHGLMGFGRDITERKRYQDALENASRDKTTFISTISHELRTPLNGIVGLSRILLDTQLDLEQQKYLKTIHVSAITLGNIFNDVIEMDKQERRKVQLDNQPIDFTGFLVDLENLGGLLAEQKGLKLIMDQHQPLPQKVITDGTRLRQILWNLLSNAVKFTPKGEKGEKGEIVVRVWHEKGDRLRFEVEDSGMGIPADELEKIFAMYYQVKDQHGGKPATGSGIGLAVSKRLAQNMGGDIHVSSSQGKGSCFTLTVIAPSADEAGSGLEDDDDLPLPALHVLLVEDIELNVVVARSVLEKLGNSVDVAMTGQEALDMFDPDEFDLVLLDIQLPDMTGLDVARQLRSRYGKRSLPPLVALTANVLKDKREYLDAGMDDVLSKPLSVPALTAVIKQHWDTHTVWTEESVVEEGDEMAKVKEDLLDIPMLEQYLDLVGPKLIHQSLEMFEQMMPGYLAILDSNMTARDQKGITEEGHKIKGAAGSVGLRHLQQIAQQIQTSSLPAWWDNVQEWIDELKHDWRHDVQVLRDWVAKAEKES”, the protein production result is “failed”.

Turning to “MVAVRSAHLNTEGEFVPDAWIASLGIASQQSCERLAETWRYCEQQTQNQPDASLLLWRGIEMVEILSTLSMDNDSMRAALLFPLADANVVDEATLEAAFGKNIVDLVHGVRDMDAIRQLKATQNDSDASEQVDNIRRMLLAMVEDFRCVVIKLAERIAHLREVKDAPEEERVLAAKECTNIYAPLANRLGIGQLKWELEDFCFRYLHPDEYKKIAKLLHERRIDRAQYIDDFVKTLRDAMKEEGVQAEIYGRPKHIYSIWRKMQKKALSFDELFDVRAVRIVVERLQDCYGALGIVHTHYRHMPDEFDDYVANPKPNGYQSIHTVVLGPSGKTLEIQIRTRQMHEDAELGVAAHWKYKEGTAVGGRSGYEGRIAWLRKLLAWQEEVSDSNDVLDEVRSQVFDDRVYVFTPKGDVVDLPAGSTPLDFAYHIHSDIGHRCIGAKIGGRIVPFTYQLHMGDQIEIITQKQPNPSRDWLNPNLGYITTSRGRSKIQNWFRKQDRDKNILAGRQILDDELAHLGVSLKAAEKLLLPRYNVNSLDELLAAIGGGDVRLNQMVNFLQSQLKQPSAEELDREALRQLTQKTHQPPARSNNKDNGRVVVEGVGNLMHHIARCCQPIPGDEITGFITRGRGISIHRADCEQLDELRASSPERIVDAVWGESYSSGYSLVVRVIANDRSGLLRDITTILANEKVNVLGVASRSDTKQQLATIDMDIEIYNLQVLGRVLAKLNQLPDVIDARRQQGA”, the protein production result was “failed”.

Take “MDNPKGIDGFTNLKEKDIATNENKLLRTITADKMIPAFLITPISSQIAGKVIAQVESDIFAHMGKAVLIPKGSKVIGYYSNNNKMGEYRLDIVWSRIITPHGINIMLTNAKGADIKGYNGLVGELIERNFQRYGVPLLLSTLTNGLLIGITSALNNRGNKEGATNFFGDYLLMQLMRQSGMGINQVVNQILRDKSKIAPIVVIREGSRVFISPNTDIFFPIPRENEVIAEFLK”: the protein production entry is listed as “failed”.

In the case of “MFGRDGRLKESRVQKPERQQRLFGLSTPLRSAVIPPLSAARWLLVLIVAAGVYFFHGFLFPVLAALVIAFASWPLYQRLLAGVGGNRTIAATLAILFILAFLVIPIALAGTYAINEVREWVGWAIETNRHGAVTPHWIATMPVVGDWLNEQWTTNFGHPGGIGELIQLISGANIGSIYRGALAAGGSAFGLLLTLLFMMIALFFAYRDGEHFAGQVDRLGERILPTRWERISRVVPATISSTVTGMTVIAIGEGLVLGIAYWLAGVPSPVTLGALTGVMALIPGGAPLSFTLVSIYLAASGSPMAGLALFLWGAVELFIVDKTLRPKLVGGPIKLPFLPTFFGLIGGVKTMGFLGLFIGPVLMALLVAIWREWLREVELVDELAAGSAAEIEATPQIEVLPEPGVAKKARA”, the protein production entry is listed as “failed”.

For “MTDDRPPLPPFTRATAAQKVQAAEDAWNTRDPHKVSLAYSPDSVWRNRDTFVTGRAAIVELLTAKWAREREYALRKDLWAFDGNRIAVRFQYECQDADGQWWRSYGNELWEFDEHGLMTRREAGIHDVRIEERERRILGPRPEAERGRSFPVQ”, the protein production entry was “failed”.

Regarding “MLNSDIYLKESLYDLLSLWRTPAFFLPAMLFPLVFYVFFGIVFNFSAAQGEYMLVSYACFGMMGPALFNYATAVASDRAQGWLTLKRISPMPLSAYVVAKFFSSLVFAACIALMLFITAALFADVQLLLWQWATLFTVLLIGTLPFALIGLLMGLCLSDKAAPAVVNLVYLPMAFLSGLWVPIQFLPDTVRYIAYGLPSYHYSQLAHAVIGTNQGHNLWLHGLYLVAFCGVLIAVIYWRYQRLSR”, the protein production entry is recorded as “failed”.

Turning to “MHREQAPEHRDRTSEHRDRTPERRDRTPEPPGRASGPAAPAPASEPPGTDLGWLLEDLVARTDHVRQAVLLTADGLPLSASDGMRARDIEHLAAVCSGFHSLARSAGERFAAGDVRQTMVMLDDAYLFITPAGDGSRLAVLSEVQTDVGQLAHEMALLVRRVGRHMDAAVRSAVHSAGS”, the protein production entry was “failed”.

On to “MQKFIIHKGIACPLEYANIDTDQIIPKQFLLAVSKQGFGKHLFHDLRYLDDKESVLNMDFNLNKKEYQNSSILVSFENFGSGSSREHAPWALVDYGIRAIIAPSFADIFKNNALGNGLLTIELAKDEVLEIVDELKKSQDKNIEISLLEKRVFFKDKIFSFDLDDFHRICLLEGLDNIALTLKHEAQIKAYEKNSKSFLV”, for which the protein production result is reported as “not failed”.

As for “SSQGFIFNLSRPMFQDRRVRQALSLLWDFEWTNRQMMRNMYIRQDSYFSNSELAASQLPTPAELKILEPLRGTVPKEVFDTVFKTPKTDGTGLIRDKQLQALALMKEAGWTPKGDELVNAQGEPFSFTFLNAQSGFERMLLPYKRTLAQIGIHFDIRRIDSAQYLNRVMARDYDMIVTGYPVSTSPGAELYNSFGSKVAMDPGSSNYMALQDPAVDTLIAGLVKADNKQTMTDYAHCLDRVLQWNYYWIPNYYPP”, the protein production result is recorded as “failed”.

As to “SLMAGSFCWRMLGLVSKVGNRARCFSSVAASEEELLDFSGSELQFNSCSLHLSLHPFFNFLLGIHSCFVCKESKTDVKRCVVTQCGKFYHEACVKKYPLTVFESRGFRCPLHSCVSCHASNPSNPRPSKGKMMRCVRCPVAYHSGDACLAAGCSVIASNSIICTAHFTARKGKRHHAHVNVSWCFVCSKGGSLLCCESCPAAFHPDCLNIEMPDGSWFCNDCRAGKKLHFQDIIWVKLGNYRWWPAEVCHPKNVPPNIQKMKHEIGEFPVFFFGSKDYYWTHQARVFPYMEGDRGSRYQGVRGIGRVFKNALQEAEARFREIKLQREARETQESERKPPPYKHIKVNKPYGKVQIYTADISEIPKCNCKPTDENPCGFDSECLNRMLMFECHPQVCPAGEFCQNQCFTKRQYPETKIIKTDGKGWGLVAKRDIRKGEFVNEYVGELIDEEECMARIKHAHENDITHFYMLTIDKDRIIDAGPKGNYSRFMNHSCQPNCETLKWTVNGDTRVGLFAVCDIPAGTELTFNYNLDCLGNEKTVCRCGASNCSGFLGDRPKTSTTLSSEEKGKKTKKKTRRRRAKGEGKRQSEDECFRCGDGGQLVLCDRKFCTKAYHLSCLGLGKRPFGKWECPWHHCDVCGKPSTSFCHLCPNSFCKEHQDGTAFSCTPDGRSYCCEHDLGAASVRSTKTEKPPPEPGKPKGKRRRRRGWRRVTEGK”, the protein production result is recorded as “not failed”.

Turning to “MKASIEQLEPYVPEKPLATLQAELGLTELVRLSANENPYGTSPKVATAVKNWDFTQSNRYPDADAQELRQAVAQQQGIDPNSIVFSVGLDEMIVMLSRTFLATNDQVLVSAPTFSEYGLHAEIEGGQLISVPTLPNDHVNFEGLMKAITPHVKMVWLCNPNNPTGTVESLAAIEAFVQQVPPETMVLIDEAYIDFTPGAAQVTAMQLPAKYPNVVVMRTFSKAYGLANFRIGYAVFNTKYAATMQTIRLPYNVNSLAQVAALAAIDDPNFVKQTVQKNATERAKWMAFFDDQGVTYDQSGANFIFFKYPSATQLADYLVHHGYLIRTGLRPGWLRLTVGTANDNQQLQQLIREFKA”, the protein production result was “failed”.

For “GCTLSAEERAALERSKAIEKNLKEDGISAAKDVKLLLLGAGESGKSTIVKQMKIIHEDGFSGEDVKQYKPVVYSNTIQSLAAIVRAMDTLGIEYGDKERKADAKMVCDVVSRMEDTEPFSAELLSAMMRLWGDSGIQECFNRSREYQLNDSAKYYLDSLDRIGAADYQPTEQDILRTRVKTTGIVETHFTFKNLHFRLFDVGGQRSERKKWIHCFEDVTAIIFCVALSGYDQVLHEDETTNRMHESLKLFDSICNNKWFTDTSIILFLNKKDIFEEKIKKSPLTICFPEYTGPSAFTEAVAYIQAQYESKNKSAHKEIYTHVTCATDTNNIQFVFDAVTDVIIAKNLRGCGLY”, the protein production entry was “failed”.
